Some targets named below: sfGFP (super folder GFP) (UniProt P42212); mVenus (UniProt P42212); YFP (UniProt P42212).
Test in all cases: ITC
(In general: In ITC the heat of successive injections is recorded.)

Data set [1] concerns the target mEGFP (monomeric enhanced GFP) (UniProt P42212).

In general, Kd refers to a measure of binding affinity in units of concentration.

On to “GGGAGCUUCUGGACUGCGAUGGGAGCACGAAACGUCGUGGCGCAAUUGGGUGGGGAAAGUCCUUAAAAGAGGGCCACCACAGAAGCUCCC [free RNA aptamer against GFP family]”, for which the Kd in data set [1] turned out to be 5 nM; with sfGFP (super folder GFP), 13 nM; with mVenus, 5 nM; with YFP, 4 nM.

The record behind these values is PMC7895908.
